Experimental data from publication PMC11343135.

Assays:
[1] = system: SARS2-N/M (SUD-N/M) (SARS-CoV-2 (WA1)); experiment: zone-interference gel electrophoresis
[2] = system: SARS1-N/M (SUD-N/M) (SARS-CoV); experiment: zone-interference gel electrophoresis

Substance: BCL2 G4 quadruplex oligonucleotide
- Kd [1]: 4.1 µM
- Kd [2]: 1.6 µM
